For orientation: stoichiometry N means a count of units in the complex or per binding partner.

Experimental findings from article doi:10.1101/2021.05.19.444882 are described below.

Experiment [1] addresses ChAdOx1 fiber-knob protein (chimpanzee adenovirus Y25 (ChAdV-Y25)). The experiment can be described thus: crystal structure.
In experiment [2] the target is ChAdOx1 hexon protein (chimpanzee adenovirus Y25 (ChAdV-Y25)). Nature of the experiment: cryo-EM structure.
Experiment [3] has as its target ChAdOx1 pIX (chimpanzee adenovirus Y25 (ChAdV-Y25)). The experiment can be described thus: cryo-EM structure.
In experiment [4] the target is ChAdOx1 penton protein (chimpanzee adenovirus Y25 (ChAdV-Y25)). The experiment can be described thus: cryo-EM structure.

In the case of “ChAdOx1 fiber-knob protein (domain or fragment)”, the stoichiometry N in experiment [1] was determined as 3.

As for ChAdOx1 hexon protein (natural protein), the stoichiometry N in experiment [2] is 3.

Substance ChAdOx1 pIX (natural protein) gave a stoichiometry N in experiment [3] of 4. Substance “ChAdOx1 penton protein (natural protein)” yielded a stoichiometry N in experiment [4] of 5.
